What was measured:
[1] = biological target: XPO1 (human) (UniProt O14980); experiment: co-IP with anti-FLAG, C-FLAG B3GNT2, mass spectrometry
[2] = biological target: SYNPO (human) (UniProt Q8N3V7); experiment: as above
[3] = biological target: CALML5 (human) (UniProt Q9NZT1); experiment: as above
[4] = biological target: RPS24 (human) (UniProt P62847); experiment: as above
[5] = biological target: SYNCRIP (human) (UniProt O60506); experiment: as above
[6] = biological target: RPL7 (human) (UniProt P18124); experiment: as above
[7] = biological target: RPL7A (human) (UniProt P62424); experiment: as above
[8] = biological target: TPM2 (human) (UniProt P07951); experiment: as above
[9] = biological target: XPOT (human) (UniProt O43592); experiment: as above
[10] = biological target: RPS26 (human) (UniProt P62854); experiment: as above
[11] = biological target: SYNM (human) (UniProt O15061); experiment: as above
[12] = biological target: LAMC1 (human) (UniProt P11047); experiment: as above
[13] = biological target: TTC13 (human) (UniProt Q8NBP0); experiment: as above
[14] = biological target: TM9SF1 (human) (UniProt O15321); experiment: as above
[15] = biological target: PURA (human) (UniProt Q00577); experiment: as above
[16] = biological target: ARPC1B (human) (UniProt O15143); experiment: as above
[17] = biological target: RUVBL2 (human) (UniProt Q9Y230); experiment: as above
[18] = biological target: RBM14 (human) (UniProt Q96PK6); experiment: as above
[19] = biological target: GBF1 (human) (UniProt Q92538); experiment: as above
[20] = biological target: TELO2 (human) (UniProt Q9Y4R8); experiment: as above
TELO2 (human), sequence (Q9Y4R8 whole entry): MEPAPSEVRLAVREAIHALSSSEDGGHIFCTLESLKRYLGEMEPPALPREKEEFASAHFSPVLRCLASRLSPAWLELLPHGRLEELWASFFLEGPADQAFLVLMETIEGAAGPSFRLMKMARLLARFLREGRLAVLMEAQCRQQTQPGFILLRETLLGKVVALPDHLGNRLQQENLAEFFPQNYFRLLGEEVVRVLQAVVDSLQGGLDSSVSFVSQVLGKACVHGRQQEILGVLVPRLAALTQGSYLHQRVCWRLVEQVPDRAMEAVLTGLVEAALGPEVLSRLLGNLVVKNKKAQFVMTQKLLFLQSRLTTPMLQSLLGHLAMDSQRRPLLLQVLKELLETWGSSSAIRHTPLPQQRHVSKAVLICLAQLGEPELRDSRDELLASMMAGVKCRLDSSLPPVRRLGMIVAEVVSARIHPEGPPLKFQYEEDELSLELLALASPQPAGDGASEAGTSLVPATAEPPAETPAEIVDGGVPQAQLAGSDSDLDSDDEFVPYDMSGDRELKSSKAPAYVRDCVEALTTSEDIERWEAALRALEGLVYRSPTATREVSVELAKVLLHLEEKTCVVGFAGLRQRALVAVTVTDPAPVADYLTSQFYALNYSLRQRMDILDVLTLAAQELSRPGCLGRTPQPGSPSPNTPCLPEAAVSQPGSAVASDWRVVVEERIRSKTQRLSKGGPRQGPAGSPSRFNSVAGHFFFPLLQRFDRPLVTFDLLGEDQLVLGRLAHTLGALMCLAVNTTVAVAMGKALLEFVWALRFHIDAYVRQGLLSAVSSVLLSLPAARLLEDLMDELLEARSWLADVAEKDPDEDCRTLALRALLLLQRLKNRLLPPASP

[21] = biological target: LCN1 (human) (UniProt P31025); experiment: as above
[22] = biological target: RPS27A (human) (UniProt P62979); experiment: as above
[23] = biological target: MAP4 (human) (UniProt P27816); experiment: as above
[24] = biological target: EMILIN1 (human) (UniProt Q9Y6C2); experiment: as above
EMILIN1 (human), sequence (Q9Y6C2 22-1016 limits assumed): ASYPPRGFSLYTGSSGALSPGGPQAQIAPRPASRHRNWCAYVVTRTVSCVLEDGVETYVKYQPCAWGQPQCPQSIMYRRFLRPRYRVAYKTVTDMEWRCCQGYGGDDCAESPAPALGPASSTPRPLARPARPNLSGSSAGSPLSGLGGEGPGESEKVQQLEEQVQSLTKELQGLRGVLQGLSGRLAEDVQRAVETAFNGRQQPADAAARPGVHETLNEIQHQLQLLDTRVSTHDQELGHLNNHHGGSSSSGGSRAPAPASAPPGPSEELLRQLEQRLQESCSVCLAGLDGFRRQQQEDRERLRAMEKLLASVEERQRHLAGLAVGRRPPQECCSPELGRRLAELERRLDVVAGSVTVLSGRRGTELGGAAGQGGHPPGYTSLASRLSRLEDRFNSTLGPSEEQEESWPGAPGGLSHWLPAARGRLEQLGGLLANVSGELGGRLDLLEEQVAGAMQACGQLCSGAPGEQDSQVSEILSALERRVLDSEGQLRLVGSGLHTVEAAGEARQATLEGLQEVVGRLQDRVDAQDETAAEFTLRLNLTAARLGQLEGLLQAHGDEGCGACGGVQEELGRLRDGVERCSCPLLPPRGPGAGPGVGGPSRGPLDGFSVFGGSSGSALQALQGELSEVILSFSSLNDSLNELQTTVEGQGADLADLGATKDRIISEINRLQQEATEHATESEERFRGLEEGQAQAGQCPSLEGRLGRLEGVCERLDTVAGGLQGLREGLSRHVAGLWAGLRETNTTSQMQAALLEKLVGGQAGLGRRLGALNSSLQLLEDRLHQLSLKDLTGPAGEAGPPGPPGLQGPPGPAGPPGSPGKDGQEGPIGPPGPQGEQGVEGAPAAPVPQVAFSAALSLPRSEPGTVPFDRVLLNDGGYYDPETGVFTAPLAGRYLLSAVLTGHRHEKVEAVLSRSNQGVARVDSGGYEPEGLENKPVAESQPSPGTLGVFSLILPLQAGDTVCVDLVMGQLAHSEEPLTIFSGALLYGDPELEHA

[25] = biological target: TBL2 (human) (UniProt Q9Y4P3); experiment: as above
TBL2 (human), sequence (Q9Y4P3 whole entry): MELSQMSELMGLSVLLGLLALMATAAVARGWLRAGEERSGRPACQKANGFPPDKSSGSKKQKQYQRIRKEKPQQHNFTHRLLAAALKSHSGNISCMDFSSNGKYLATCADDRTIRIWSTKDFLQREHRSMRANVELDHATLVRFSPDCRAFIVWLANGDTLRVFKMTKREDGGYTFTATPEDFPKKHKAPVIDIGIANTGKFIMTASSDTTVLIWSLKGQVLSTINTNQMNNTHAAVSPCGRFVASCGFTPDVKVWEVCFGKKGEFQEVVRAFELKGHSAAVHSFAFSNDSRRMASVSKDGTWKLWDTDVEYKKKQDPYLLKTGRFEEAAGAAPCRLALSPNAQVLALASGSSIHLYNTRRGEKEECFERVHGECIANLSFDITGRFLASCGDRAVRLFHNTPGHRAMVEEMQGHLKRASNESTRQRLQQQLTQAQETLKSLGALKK

[26] = biological target: HNRNPH1 (human) (UniProt P31943); experiment: as above
[27] = biological target: KCTD5 (human) (UniProt Q9NXV2); experiment: as above
[28] = biological target: EIF3A (human) (UniProt Q14152); experiment: as above
[29] = biological target: P4HA2 (human) (UniProt O15460); experiment: as above
[30] = biological target: SPARC (human) (UniProt P09486); experiment: as above
[31] = biological target: TPM3 (human) (UniProt P06753); experiment: as above
TPM3 (human), sequence (P06753 other isoform, or with tags, fused parts or gaps limits assumed): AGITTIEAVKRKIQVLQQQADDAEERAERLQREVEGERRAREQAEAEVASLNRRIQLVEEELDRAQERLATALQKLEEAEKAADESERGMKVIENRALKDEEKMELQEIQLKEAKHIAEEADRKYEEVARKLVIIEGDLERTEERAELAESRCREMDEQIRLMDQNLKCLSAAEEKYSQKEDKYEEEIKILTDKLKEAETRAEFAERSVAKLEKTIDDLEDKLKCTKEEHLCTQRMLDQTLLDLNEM

[32] = biological target: GSN (human) (UniProt P06396); experiment: as above
GSN (human), sequence (P06396 28-782 limits assumed): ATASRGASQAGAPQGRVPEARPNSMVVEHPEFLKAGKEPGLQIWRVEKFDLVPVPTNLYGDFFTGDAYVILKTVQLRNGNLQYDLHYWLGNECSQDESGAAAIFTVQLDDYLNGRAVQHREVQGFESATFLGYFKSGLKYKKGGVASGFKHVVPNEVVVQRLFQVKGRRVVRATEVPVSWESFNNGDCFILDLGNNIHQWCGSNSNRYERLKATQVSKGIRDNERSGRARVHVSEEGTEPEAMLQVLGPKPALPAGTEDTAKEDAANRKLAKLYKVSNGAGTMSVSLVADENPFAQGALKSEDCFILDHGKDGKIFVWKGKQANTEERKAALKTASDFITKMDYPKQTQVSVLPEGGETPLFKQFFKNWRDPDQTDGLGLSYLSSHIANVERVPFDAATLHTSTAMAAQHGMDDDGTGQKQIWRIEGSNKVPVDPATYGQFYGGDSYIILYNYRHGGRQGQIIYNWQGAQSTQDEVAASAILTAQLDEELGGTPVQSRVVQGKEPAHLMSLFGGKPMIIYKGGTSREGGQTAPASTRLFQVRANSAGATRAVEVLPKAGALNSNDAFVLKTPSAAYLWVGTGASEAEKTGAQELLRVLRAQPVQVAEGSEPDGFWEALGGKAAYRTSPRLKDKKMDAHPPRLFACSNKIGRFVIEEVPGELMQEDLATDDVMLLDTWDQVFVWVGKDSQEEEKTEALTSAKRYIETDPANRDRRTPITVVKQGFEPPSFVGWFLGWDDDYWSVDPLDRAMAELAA

[33] = biological target: CANX (human) (UniProt P27824); experiment: co-IP/MS, anti-FLAG IP of C-FLAG B3GNT2 cell lysate
CANX (human), sequence (P27824 21-592 limits assumed): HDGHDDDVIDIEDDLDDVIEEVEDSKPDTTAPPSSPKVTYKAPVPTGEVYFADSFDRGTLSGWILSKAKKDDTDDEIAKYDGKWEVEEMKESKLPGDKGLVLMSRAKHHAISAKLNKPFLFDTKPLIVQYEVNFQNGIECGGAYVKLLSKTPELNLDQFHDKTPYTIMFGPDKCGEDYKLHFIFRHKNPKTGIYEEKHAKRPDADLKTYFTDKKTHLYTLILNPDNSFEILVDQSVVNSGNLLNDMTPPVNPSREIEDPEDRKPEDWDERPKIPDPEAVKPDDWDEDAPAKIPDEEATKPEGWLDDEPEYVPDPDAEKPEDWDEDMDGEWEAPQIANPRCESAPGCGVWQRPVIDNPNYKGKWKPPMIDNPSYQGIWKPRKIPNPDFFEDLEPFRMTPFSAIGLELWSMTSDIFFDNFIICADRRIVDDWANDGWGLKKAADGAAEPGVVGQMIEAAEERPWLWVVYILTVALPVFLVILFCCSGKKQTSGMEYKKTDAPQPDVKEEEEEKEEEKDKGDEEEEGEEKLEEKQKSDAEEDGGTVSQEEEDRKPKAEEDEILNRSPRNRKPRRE

[34] = biological target: PRDX2 (human) (UniProt P32119); experiment: as above
[35] = biological target: RCN2 (human) (UniProt Q14257); experiment: as above
RCN2 (human), sequence (Q14257 other isoform, or with tags, fused parts or gaps limits assumed): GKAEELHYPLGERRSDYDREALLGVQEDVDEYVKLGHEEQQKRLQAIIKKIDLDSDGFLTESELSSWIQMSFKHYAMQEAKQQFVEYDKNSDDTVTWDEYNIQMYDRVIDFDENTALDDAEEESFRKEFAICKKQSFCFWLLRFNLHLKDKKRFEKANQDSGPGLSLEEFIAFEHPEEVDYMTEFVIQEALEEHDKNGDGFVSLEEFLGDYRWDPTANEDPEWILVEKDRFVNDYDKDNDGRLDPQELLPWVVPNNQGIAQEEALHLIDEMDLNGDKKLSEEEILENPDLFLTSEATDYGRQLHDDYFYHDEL

RPS24 (human), sequence (P62847 other isoform, or with tags, fused parts or gaps limits assumed): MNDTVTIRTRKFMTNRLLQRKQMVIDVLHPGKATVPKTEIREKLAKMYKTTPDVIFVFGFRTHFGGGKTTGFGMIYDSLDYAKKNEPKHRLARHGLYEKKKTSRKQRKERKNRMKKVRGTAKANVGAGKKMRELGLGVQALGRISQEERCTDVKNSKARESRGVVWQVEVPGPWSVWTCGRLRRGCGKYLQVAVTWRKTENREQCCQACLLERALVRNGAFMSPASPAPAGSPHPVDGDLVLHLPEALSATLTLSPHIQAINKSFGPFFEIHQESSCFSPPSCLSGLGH
SYNCRIP (human), sequence (O60506 other isoform, or with tags, fused parts or gaps limits assumed): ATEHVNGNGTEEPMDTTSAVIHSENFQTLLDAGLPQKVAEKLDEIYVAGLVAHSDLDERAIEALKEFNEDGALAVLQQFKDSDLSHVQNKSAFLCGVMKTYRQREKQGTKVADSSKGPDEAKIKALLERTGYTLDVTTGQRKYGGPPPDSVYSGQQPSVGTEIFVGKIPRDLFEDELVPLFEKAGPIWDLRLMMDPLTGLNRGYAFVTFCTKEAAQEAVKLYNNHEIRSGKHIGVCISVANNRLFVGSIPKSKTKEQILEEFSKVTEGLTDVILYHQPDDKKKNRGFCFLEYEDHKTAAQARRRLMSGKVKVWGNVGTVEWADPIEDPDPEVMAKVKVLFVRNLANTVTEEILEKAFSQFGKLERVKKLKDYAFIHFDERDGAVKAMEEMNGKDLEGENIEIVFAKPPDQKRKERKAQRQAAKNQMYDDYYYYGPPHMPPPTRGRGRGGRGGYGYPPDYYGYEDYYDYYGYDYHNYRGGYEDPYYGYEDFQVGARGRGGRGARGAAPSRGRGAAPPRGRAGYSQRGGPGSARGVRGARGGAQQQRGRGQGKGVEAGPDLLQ

C-terminal FLAG tagged B3GNT2 (from UniProt Q9NY97 1-397) (enzyme)
co-IP/MS count, C-term flag [1]: 2 | co-IP mass spectrometry count [2]: 7 | co-IP mass spectrometry count [3]: 4 | co-IP/MS count, C-term flag [4]: 8 | co-IP mass spectrometry count [5]: 13 | co-IP mass spectrometry count [6]: 21 | co-IP/MS count, C-term flag [7]: 22 | co-IP/MS count, C-term flag [8]: 4 | co-IP/MS count, C-term flag [9]: 2 | co-IP mass spectrometry count [10]: 11 | co-IP mass spectrometry count [11]: 5 | co-IP/MS count, C-term flag [12]: 4 | co-IP/MS count, C-term flag [13]: 4 | co-IP/MS count, C-term flag [14]: 4 | co-IP/MS count, C-term flag [15]: 3 | co-IP/MS count, C-term flag [16]: 5 | co-IP/MS count, C-term flag [17]: 4 | co-IP/MS count, C-term flag [18]: 2 | co-IP mass spectrometry count [19]: 5 | co-IP mass spectrometry count [20]: 3 | co-IP mass spectrometry count [21]: 11 | co-IP mass spectrometry count [22]: 27 | co-IP mass spectrometry count [23]: 5 | co-IP mass spectrometry count [24]: 3 | co-IP mass spectrometry count [25]: 5 | co-IP/MS count, C-term flag [26]: 15 | co-IP mass spectrometry count [27]: 3 | co-IP mass spectrometry count [28]: 3 | co-IP/MS count, C-term flag [29]: 4 | co-IP/MS count, C-term flag [30]: 4 | co-IP mass spectrometry count [31]: 5 | co-IP mass spectrometry count [32]: 3 | co-IP mass spectrometry count [33]: 11 | co-IP mass spectrometry count [34]: 5 | co-IP mass spectrometry count [35]: 16
